Patent publication US20230312722A1 (NONA BIOSCIENCES SUZHOU, published 2023)
Values belong to the binder of their own block, whether it stands above or below them.

Experiments:
CD3 on human T cells = CD3 on human T cells (human, UniProt P07766 23-207; P04234 22-171; P09693 23-182); experiment: FACS on human T cells; EC50 printed as n.d., curve still rising at 100 nM
Protocol: (§1) SK-BR-3 cells were digested. T cells were isolated using the human T cell isolation kit (Miltenyi, #130-096-535) as described in the method of the instruction, and resuspended with PBS containing 2% BSA. The cell density was adjusted to 1×10⁶ cells/mL. The cells were seeded in a 96-well V-bottom plate (Corning, #3894) at 100 μL/well, followed by the addition of test antibodies diluted in a 3-fold gradient at a concentration that was 2 times the final concentration, each at 100 μL/well. The cells were incubated at 4° C. for 2 h away from light. Thereafter, the cells in each well were rinsed twice with 100 μL of pre-cooled PBS containing 2% BSA, and centrifuged at 500 g at 4° C. for 5 min, and then the supernatant was discarded. Then each well was added with 100 μL of fluorescent secondary antibody (Alexa Fluor 488-conjugated AffiniPure Goat Anti-Human IgG, Fcγ Fragment Specific, Jackson, #109-545-098, diluted in a 1:500 ratio), and the plate was incubated away from light at 4° C. for 1 h. The cells in each well were washed twice with 100 μL of pre-cooled PBS containing 2% BSA, and centrifuged at 500 g at 4° C. for 5 minutes, and then the supernatant was discarded. Finally, the cells in each well were resuspended with 200 μL of pre-cooled PBS containing 2% BSA, and the fluorescence signal values were read using an ACEA Novocyte3000 flow cytometer.

[1] = target: T1, human B7H4 on the cell surface (human, UniProt Q7Z7D3 25-282); experiment: FACS on SK-BR-3 cells
T1 construct: whole, on cells; also called CHOK1/hu B7H4; B7H4 on SK-BR-3
T1 sequence (looked up): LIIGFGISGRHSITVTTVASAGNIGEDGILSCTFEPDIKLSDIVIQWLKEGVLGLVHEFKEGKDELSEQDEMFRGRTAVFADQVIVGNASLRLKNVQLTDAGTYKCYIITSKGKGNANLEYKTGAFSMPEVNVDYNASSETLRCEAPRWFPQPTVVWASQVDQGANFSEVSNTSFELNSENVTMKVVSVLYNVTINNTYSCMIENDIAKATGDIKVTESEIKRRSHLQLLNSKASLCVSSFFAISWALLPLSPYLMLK
Protocol: as §1

Sequence of CD3 on human T cells (P07766 23-207 limits assumed, chain 1 of 3): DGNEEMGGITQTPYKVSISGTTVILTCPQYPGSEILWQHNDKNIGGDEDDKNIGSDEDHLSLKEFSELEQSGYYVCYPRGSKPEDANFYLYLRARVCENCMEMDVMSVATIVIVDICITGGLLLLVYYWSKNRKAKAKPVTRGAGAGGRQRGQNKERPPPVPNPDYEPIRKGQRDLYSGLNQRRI
Sequence of CD3 on human T cells (P04234 22-171 limits assumed, chain 2 of 3): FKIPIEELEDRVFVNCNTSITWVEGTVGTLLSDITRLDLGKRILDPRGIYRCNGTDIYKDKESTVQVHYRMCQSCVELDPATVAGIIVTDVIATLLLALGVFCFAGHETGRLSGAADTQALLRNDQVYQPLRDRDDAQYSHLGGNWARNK
Sequence of CD3 on human T cells (P09693 23-182 limits assumed, chain 3 of 3): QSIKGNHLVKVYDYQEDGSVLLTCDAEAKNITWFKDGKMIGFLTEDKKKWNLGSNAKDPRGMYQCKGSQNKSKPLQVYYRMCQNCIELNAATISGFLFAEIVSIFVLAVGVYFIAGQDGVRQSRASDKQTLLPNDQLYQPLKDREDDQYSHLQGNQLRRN

B2: PR002849 (bispecific antibody, human IgG1, kappa, L234A L235A)
light: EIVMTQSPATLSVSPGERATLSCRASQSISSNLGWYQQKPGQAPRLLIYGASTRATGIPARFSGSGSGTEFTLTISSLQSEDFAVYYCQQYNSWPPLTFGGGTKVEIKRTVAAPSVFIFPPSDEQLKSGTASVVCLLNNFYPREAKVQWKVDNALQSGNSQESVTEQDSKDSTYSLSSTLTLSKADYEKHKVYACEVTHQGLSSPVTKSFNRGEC
heavy: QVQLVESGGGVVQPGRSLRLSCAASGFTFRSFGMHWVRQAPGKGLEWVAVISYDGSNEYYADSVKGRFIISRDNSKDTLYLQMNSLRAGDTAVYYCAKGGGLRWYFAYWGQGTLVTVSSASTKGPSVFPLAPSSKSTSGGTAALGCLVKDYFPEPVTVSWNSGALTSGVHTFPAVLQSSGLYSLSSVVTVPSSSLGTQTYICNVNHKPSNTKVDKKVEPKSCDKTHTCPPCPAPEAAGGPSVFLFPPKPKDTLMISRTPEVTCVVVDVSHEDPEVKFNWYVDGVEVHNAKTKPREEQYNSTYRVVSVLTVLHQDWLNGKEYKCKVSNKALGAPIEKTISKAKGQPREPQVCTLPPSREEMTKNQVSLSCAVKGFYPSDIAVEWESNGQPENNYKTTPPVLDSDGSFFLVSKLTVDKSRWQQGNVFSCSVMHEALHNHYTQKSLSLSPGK
chain: QAVVTQEPSLTVSPGGTVTLTCRSSTGAVTTSNYANWVQQKPGQAPRGLIGGTNKRAPWTPARFSGSLLGDKAALTLLGAQPEDEAEYFCALWYSNLWVFGGGTKLTVLGGGQSGQGGSGGGGSEVQLVESGGGLVQPGGSLKLSCAASGFTFNTYAMNWVRQASGKGLEWVGRIRSKYNNYATYYADSVKDRFTISRDDSKSTLYLQMNSLKTEDTAVYYCVRHGNFGNSYVSWFAYWGQGTLVTVSSASEPKSSDKTHTCPPCPAPEAAGGPSVFLFPPKPKDTLMISRTPEVTCVVVDVSHEDPEVKFNWYVDGVEVHNAKTKPREEQYNSTYRVVSVLTVLHQDWLNGKEYKCKVSNKALGAPIEKTISKAKGQPREPQVYTLPPCREEMTKNQVSLWCLVKGFYPSDIAVEWESNGQPENNYKTTPPVLDSDGSFFLYSKLTVDKSRWQQGNVFSCSVMHEALHNHYTQKSLSLSPGK
notes: B7H4 x CD3, 1+1 Fab-Fc-scFv (structure 1): B7H4 Fab from PR001476 (hole, AAG), CD3 scFv(VL-VH)-Fc from PR000627 (knob, AAG)
EC50 [1]: 0.933 nM
Maximum MFI [1]: 146000
Maximum MFI (CD3 on human T cells): 121000

B4: PR003733 (bispecific antibody, human IgG1, lambda, L234A L235A)
light: QAVVTQEPSLTVSPGGTVTLTCRSSTGAVTTSNYANWVQQKPGQAPRGLIGGTNKRAPWTPARFSGSLLGDKAALTLLGAQPEDEAEYFCALWYSNLWVFGGGTKLTVLGQPKAAPSVTLFPPSSEELQANKATLVCLISDFYPGAVTVAWKADSSPVKAGVETTTPSKQSNNKYAASSYLSLTPEQWKSHRSYSCQVTHEGSTVEKTVAPTECS
heavy: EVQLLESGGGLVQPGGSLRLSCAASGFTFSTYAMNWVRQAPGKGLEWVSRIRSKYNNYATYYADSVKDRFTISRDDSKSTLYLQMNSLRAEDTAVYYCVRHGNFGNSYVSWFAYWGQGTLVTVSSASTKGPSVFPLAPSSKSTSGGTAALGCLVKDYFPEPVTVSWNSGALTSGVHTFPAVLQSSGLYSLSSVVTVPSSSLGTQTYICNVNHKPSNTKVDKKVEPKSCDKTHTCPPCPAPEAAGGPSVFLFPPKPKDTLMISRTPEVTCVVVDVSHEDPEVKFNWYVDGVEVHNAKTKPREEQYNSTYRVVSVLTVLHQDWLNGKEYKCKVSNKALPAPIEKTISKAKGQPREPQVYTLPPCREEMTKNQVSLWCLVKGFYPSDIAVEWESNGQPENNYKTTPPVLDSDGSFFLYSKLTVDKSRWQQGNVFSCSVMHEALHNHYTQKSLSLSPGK
chain: EIVMTQSPASLSVSPGERATLSCRASQSVSSNLAWYQQKPGQAPRLLIYGASTRATGIPARVSGGGSGTEFTLTISSLQSEDFAVYYCQQYKNWPFTFGPGTKLEIKGGGGSGGGGSGGGGSGGGGSQVQLVQSGAEVKKPGSSMRVSCKASEDTFSSYAISWVRQAPGQGLEWMGGTAPIFGTTNYAQKFQGRVTITADKSTSTAYMELSSLRSEDTAVYYCARGGPYFDYWGQGTLVTVSSASEPKSSDKTHTCPPCPAPEAAGGPSVFLFPPKPKDTLMISRTPEVTCVVVDVSHEDPEVKFNWYVDGVEVHNAKTKPREEQYNSTYRVVSVLTVLHQDWLNGKEYKCKVSNKALPAPIEKTISKAKGQPREPQVCTLPPSREEMTKNQVSLSCAVKGFYPSDIAVEWESNGQPENNYKTTPPVLDSDGSFFLVSKLTVDKSRWQQGNVFSCSVMHEALHNHYTQKSLSLSPGK
notes: B7H4 x CD3, 1+1 Fab-Fc-scFv: CD3 Fab from PR001848 (knob, LALA; strong CD3 end), B7H4 scFv(VL-VH)-Fc (hole, LALA)
EC50 [1]: 71.2 nM
Maximum MFI [1]: 214000

Other lines, results leading:

Maximum MFI (CD3 on human T cells): 187000
B1: PR002857 (bispecific antibody, human IgG1, kappa, lambda, L234A L235A)
chain 1: EVQLLESGGGLVQPGGSLRLSCAASGFTFSTYAMNWVRQAPGKGLEWVSRIRSKYNNYATYYADSVKDRFTISRDDSKSTLYLQMNSLRAEDTAVYYCVRHGNFGNSYVSWFAYWGQGTLVTVSSASTKGPSVFPLAPSSKSTSGGTAALGCLVKDYFPEPVTVSWNSGALTSGVHTFPAVLQSSGLYSLSSVVTVPSSSLGTQTYICNVNHKPSNTKVDKKVEPKSC
chain 2: QAVVTQEPSLTVSPGGTVTLTCRSSTGAVTTSNYANWVQQKPGQAPRGLIGGTNKRAPWTPARFSGSLLGDKAALTLLGAQPEDEAEYFCALWYSNLWVFGGGTKLTVLGQPKAAPSVTLFPPSSEELQANKATLVCLISDFYPGAVTVAWKADSSPVKAGVETTTPSKQSNNKYAASSYLSLTPEQWKSHRSYSCQVTHEGSTVEKTVAPTECSDKTHTCPPCPAPEAAGGPSVFLFPPKPKDTLMISRTPEVTCVVVDVSHEDPEVKFNWYVDGVEVHNAKTKPREEQYNSTYRVVSVLTVLHQDWLNGKEYKCKVSNKALGAPIEKTISKAKGQPREPQVYTLPPCREEMTKNQVSLWCLVKGFYPSDIAVEWESNGQPENNYKTTPPVLDSDGSFFLYSKLTVDKSRWQQGNVFSCSVMHEALHNHYTQKSLSLSPGK
heavy: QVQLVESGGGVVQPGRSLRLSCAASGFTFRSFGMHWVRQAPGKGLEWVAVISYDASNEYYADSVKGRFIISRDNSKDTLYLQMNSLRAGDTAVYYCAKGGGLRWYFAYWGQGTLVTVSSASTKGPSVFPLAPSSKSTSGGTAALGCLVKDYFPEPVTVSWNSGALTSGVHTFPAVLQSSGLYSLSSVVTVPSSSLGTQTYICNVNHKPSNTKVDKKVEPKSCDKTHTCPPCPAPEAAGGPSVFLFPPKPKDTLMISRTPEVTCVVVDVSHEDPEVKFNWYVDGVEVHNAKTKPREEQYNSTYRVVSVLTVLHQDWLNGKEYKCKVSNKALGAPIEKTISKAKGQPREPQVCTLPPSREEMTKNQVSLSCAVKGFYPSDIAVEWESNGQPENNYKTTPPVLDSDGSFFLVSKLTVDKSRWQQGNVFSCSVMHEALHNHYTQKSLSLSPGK
light: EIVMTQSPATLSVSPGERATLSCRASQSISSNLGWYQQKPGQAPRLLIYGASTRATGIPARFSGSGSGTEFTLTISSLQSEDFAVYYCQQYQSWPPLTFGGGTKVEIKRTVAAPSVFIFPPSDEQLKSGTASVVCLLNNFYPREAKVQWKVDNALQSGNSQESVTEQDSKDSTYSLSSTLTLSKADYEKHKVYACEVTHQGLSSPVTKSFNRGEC
notes: B7H4 x CD3, 1+1 Fab-Fc-crossFab (structure 4): CD3 crossFab from PR001924, B7H4 Fab from PR002408

Maximum MFI (CD3 on human T cells): 125000
B3: PR002851 (bispecific antibody, human IgG1, kappa, L234A L235A)
light: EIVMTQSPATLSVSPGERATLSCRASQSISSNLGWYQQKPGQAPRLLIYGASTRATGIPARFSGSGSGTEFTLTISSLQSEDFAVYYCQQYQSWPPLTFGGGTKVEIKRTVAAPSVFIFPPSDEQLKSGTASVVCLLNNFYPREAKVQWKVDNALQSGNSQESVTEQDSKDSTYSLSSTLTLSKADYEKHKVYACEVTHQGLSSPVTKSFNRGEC
heavy: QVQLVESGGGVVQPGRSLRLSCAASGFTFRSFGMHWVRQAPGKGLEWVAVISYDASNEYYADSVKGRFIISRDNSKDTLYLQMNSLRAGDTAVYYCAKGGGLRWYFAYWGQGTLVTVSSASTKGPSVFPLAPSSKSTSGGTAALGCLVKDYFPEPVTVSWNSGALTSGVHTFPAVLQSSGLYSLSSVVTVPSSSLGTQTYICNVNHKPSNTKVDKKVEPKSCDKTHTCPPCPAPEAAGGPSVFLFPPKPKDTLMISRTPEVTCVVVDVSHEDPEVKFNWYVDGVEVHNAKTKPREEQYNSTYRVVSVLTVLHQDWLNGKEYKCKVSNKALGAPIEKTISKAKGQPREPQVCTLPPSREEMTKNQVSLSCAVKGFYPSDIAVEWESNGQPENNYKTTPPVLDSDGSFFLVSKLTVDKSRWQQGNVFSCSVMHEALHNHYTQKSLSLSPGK
chain: B2 chain
notes: B7H4 x CD3, 1+1 Fab-Fc-scFv (structure 1): B7H4 Fab from PR002408, CD3 scFv-Fc from PR000627
